Experimental data: patent publication US20140314780A1, “Compositions Using Antibodies Directed to GPNMB and Uses Thereof” (Celldex Therapeutics, Inc., priority 2008, published 2014)
“Also recorded” adds a separate entry of the source.

Key:
[1] = system: GPNMB surface expression on WM2664 melanoma cells; assay: Flow cytometry of GPNMB surface expression, WM2664 cells; assay type: cell-based, human; conditions: for GPNMB surface expression, flow cytometry GeoMean: WM2664, CR011 (anti-GPNMB) primary antibody; for GPNMB surface expression: melanoma cells (WM2664), 48 hours (Table 37, bottom right)
Method: The following day, cells were treated as indicated in the figures/legends, harvested with versene (Invitrogen), washed with PBS and incubated with primary antibody (10 μg/mL) diluted in staining buffer (PBS pH 7.4, 4% FBS, 0.1% sodium azide) for 30 minutes on ice. […] After incubation with primary antibody, samples were washed with staining buffer and then incubated with secondary antibody (PE-conjugated anti-human antibody; 1:100) for 30 minutes on ice. After incubation, samples were washed with staining buffer and examined on a Becton Dickinson FACSCalibur flow cytometer (BD Immunocytometry Systems, San Jose, Calif.). Data analysis was performed with Becton Dickinson Cell Quest software and the geometric mean fluorescence intensity (GeoMean) was determined for each sample.
For the data shown in Table 37, flow cytometry was performed on intact, non-permeabilized cells using the indicated primary monoclonal antibodies. The CR011 antibody utilized was not MMAE-conjugated, but is the same antibody used to generate CR011-vcMMAE. The results are reported as GeoMeans. For the data shown in the top panel of Table 37, A375 (melanoma) or SF539 (glioblastoma) cells were treated with the indicated concentrations of MEKi (U0126), RAFKi (553013) or ERKi (FR180204) for 12, 24 or 48 hours prior to analysis. For the data shown in the bottom left panel of Table 37, SKMEL2 (melanoma) cells were treated with MEKi (U0126; 10 uM), imatinib (20 uM), p38i (p38 MAPKi SB202190; 50 uM), NH4Cl (ammonium chloride; 20 mM) or CLQ (chloroquine; 20 uM) for 48 hours prior to analysis. For the data shown in the bottom right panel of Table 37, WM2664 (melanoma) cells were treated with MON (monensin) or MMPi (GM6001) for 48 hours prior to analysis.

shed GPNMB [2] = assay: GPNMB shedding: immunoblotting of conditioned media (supernatants); assay type: cell-based, human; conditions: conditioned media of WM2664, UACC62; 48 hours (FIG. 7A, 7B)
Excerpt: Shedding of membrane proteins is a common phenomenon that may affect ADC activity. To investigate potential GPNMB shedding, conditioned media collected from melanoma cell lines was immunoblotted for GPNMB (FIG. 7A). […] Shed GPNMB was also readily detected in conditioned media harvested from several other melanoma and glioblastoma cell lines examined, although a very low level of shed GPNMB was found in conditioned media harvested from A375 melanoma cells, a finding which is consistent with the low basal level of GPNMB expression by these cells.

GPNMB [3] = assay: Immunoblotting for GPNMB on whole-cell lysates of cancer cell lines after drug exposure; assay type: cell-based, human; conditions: whole-cell lysates, 48 hours (FIG. 7)
Excerpt: Cancer cell lines were of human origin and were obtained from the American Type Culture Collection (Manassas, Va.) and from the National Cancer Institute (Bethesda, Md.) and cultured in RPMI-1640 supplemented with 10% FBS (growth media). Sources of reagents were as follows: RAFKi (553013), MEKi (U0126), MEKi (PD98059), MEKi (444939), ERKi (FR180204), p38 MAPKi (SB202190), p38 MAPKi (SB203580), aurora kinase inhibitor (189404), JNK inhibitor (420119), MMPi (GM6001) were from EMD Chemicals (San Diego, Calif.). ERKi (A6355), RAFKi: (GW5074), ammonium chloride (NH4Cl), chloroquine, monensin, cyclohexamide and emetine were from Sigma (Saint Louis, Mo.). HSP90i (geldanamycin) was from AG Scientific (San Diego, Calif.) and imatinib (Gleevec) was purchased from a pharmacy.
Cells were seeded in 6-well tissue culture dishes at a subconfluent density and allowed to attach overnight. For harvesting cell lysates, media was removed, cells were briefly washed with serum-free media and then 1× Tris-glycine SDS sample buffer (Invitrogen, Carlsbad, Calif.) supplemented with 10 mM dithiothreitol (Sigma) was added directly to the wells. Cell lysates were then collected and boiled for 10 minutes. For preparing conditioned media, drug treatments were performed in a minimum volume of growth media (1.5 mL/well). Following 48 hours of incubation, conditioned media was collected, briefly microfuged, mixed with an equal volume of 2× Tris-glycine SDS sample buffer (Invitrogen, Carlsbad, Calif.) supplemented with 20 mM dithiothreitol (Sigma) and boiled for 10 minutes. For cell lysates, samples were quantified and an equal quantity of protein/lane was resolved on 4-20% gradient polyacrylamide gels (Invitrogen) and then transferred to nitrocellulose filters (Invitrogen). The volume of conditioned media loaded/lane was adjusted based on the protein concentration determined in the respective cell lysates. Immunoblotting was performed using standard procedures and the following primary antibodies: MARTI (sc-20032), TYRP2 (sc-25544), TYRP1 (sc-25543), PMEL17 (sc-15010), MAGEA1 (sc-20033), MCSP (sc-20162), MTf (sc-26651), MCAM (sc-18942), pp-ERK (sc-7976) and ERK (sc-94) (preceding antibodies were purchased from Santa Cruz Biotechnologies, Santa Cruz, Calif.), GPNMB (AF2550; R & D Systems, Minneapolis Minn.), actin (A5060; Sigma). Following incubation with the appropriate horseradish peroxidase-conjugated secondary antibodies, enhanced chemiluminescence (GE Healthcare, Chalfont St. Giles, United Kingdom) was used for detection.

GPNMB [4] = target: T1, GPNMB (Homo sapiens, UniProt Q14956); assay: Epitope binning of anti-GPNMB antibodies (competitive binding)
T1 construct: V5His; made in house
T1 sequence (Q14956 23-492): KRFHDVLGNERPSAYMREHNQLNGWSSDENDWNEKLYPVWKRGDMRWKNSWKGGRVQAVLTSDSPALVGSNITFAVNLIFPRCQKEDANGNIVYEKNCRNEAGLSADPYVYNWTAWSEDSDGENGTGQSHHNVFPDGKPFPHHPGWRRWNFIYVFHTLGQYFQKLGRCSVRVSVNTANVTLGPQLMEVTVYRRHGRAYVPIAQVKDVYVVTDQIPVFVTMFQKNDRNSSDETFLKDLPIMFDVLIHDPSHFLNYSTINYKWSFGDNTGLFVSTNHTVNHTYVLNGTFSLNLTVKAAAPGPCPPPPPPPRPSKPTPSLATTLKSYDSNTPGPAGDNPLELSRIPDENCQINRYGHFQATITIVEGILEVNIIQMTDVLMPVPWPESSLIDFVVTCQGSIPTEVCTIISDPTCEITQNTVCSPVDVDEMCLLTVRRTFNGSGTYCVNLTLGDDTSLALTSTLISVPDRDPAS
Excerpt: Certain antibodies, described herein were binned in accordance with the protocol described in U.S. Patent Application Publication No. 20030157730. […] Competitive binding by antibodies from […] supports antibody specificity for similar or adjacent epitopes. Non competitive binding supports antibody specificity for unique epitopes.
Three bins were created to further test the binding of six anti-GPNMB antibodies. Bin 1 included GPNMB antibodies (1.2.1), (1.10.1), and (2.22.1). Bin 2 included GPNMB antibodies (2.3.1) and (1.15.1), and Bin 3 included GPNMB antibody (2.10.1). The results of the binning assays are provided below in Tables 4 and 5.

CG56972 expressing cells [5] = assay: Effect of naked mAb on CG56972 expressing cells in vitro; assay type: cell-based; conditions: naked IgG2 mAb
Excerpt: (§1) Fully human monoclonal antibodies (mAb)-IgG2 to CG56972/GPNMB, an antigen predominantly found on the surface of melanoma and brain tumor cells, were generated. […] Thus it was examined whether isotype switching from an IgG2 to an IgG1 might enable the mAb to kill human melanoma cells through ADCC effector functions.

CG56972 expressing cells [6] = assay: Effect of naked mAb on CG56972 expressing cells in vivo; conditions: naked IgG2 mAb
Excerpt: as §1

shed GPNMB [7] = assay: Immunoprecipitation of shed GPNMB; assay type: binding, human

CNC(=O)[C@H](Cc1c[nH]c2ccccc12)NC(=O)[C@@H](CC(=O)NO)CC(C)C [GM6001]
GPNMB surface expression, flow cytometry GeoMean ([1]; MMPi 25 uM): 55.9 | GPNMB surface expression, flow cytometry GeoMean ([1]; MMPi 50 uM): 68.9 | GPNMB surface expression, flow cytometry GeoMean ([1]; MMPi 100 uM): 66.8 | GPNMB surface expression [1]: increased GPNMB surface expression | GPNMB shedding (shed GPNMB [2]): decreased or eliminated

CC[C@@]1([C@@H]2O[C@@H]([C@H]3O[C@@](O)(CO)[C@H](C)C[C@@H]3C)C[C@@H]2C)CC[C@H]([C@]2(C)CC[C@]3(C[C@H](O)[C@@H](C)[C@@H]([C@@H](C)[C@@H](OC)[C@H](C)C(=O)O)O3)O2)O1 [monensin]
faster migrating ~110 kDa GPNMB species (GPNMB [3]): increased the expression | slowest migrating cell-associated ~130 kDa GPNMB species (GPNMB [3]): decreased or eliminated | GPNMB surface expression, flow cytometry GeoMean ([1]; MON 250 nM): 88.9 | GPNMB surface expression, flow cytometry GeoMean ([1]; MON 500 nM): 86.8 | GPNMB surface expression [1]: increased GPNMB surface expression | GPNMB shedding (shed GPNMB [2]): decreased or eliminated; also recorded: strong inhibition

CR011: fully human monoclonal antibody that specifically binds to GPNMB; VH SEQ ID NO: 20, VL SEQ ID NO: 29
epitope bin (GPNMB [4]; Table 4): VIII | binning assay signal (antibody pair matrix) (GPNMB [4]; Table 4, paired with column BB): −19 | binning assay signal (antibody pair matrix) (GPNMB [4]; Table 4, paired with column antibody 1.1): 91 | binning assay signal (antibody pair matrix) (GPNMB [4]; Table 4, paired with column antibody 1.11): 10 | binning assay signal (antibody pair matrix) (GPNMB [4]; Table 4, paired with column antibody 1.12): 15 | binning assay signal (antibody pair matrix) (GPNMB [4]; Table 4, paired with column antibody 1.13): 13 | binning assay signal (antibody pair matrix) (GPNMB [4]; Table 4, paired with column antibody 1.15): 0 | binning assay signal (antibody pair matrix) (GPNMB [4]; Table 4, paired with column antibody 1.2): 79 | binning assay signal (antibody pair matrix) (GPNMB [4]; Table 4, paired with column antibody 1.3): 71 | binning assay signal (antibody pair matrix) (GPNMB [4]; Table 4, paired with column antibody 1.5): 15 | binning assay signal (antibody pair matrix) (GPNMB [4]; Table 4, paired with column antibody 1.7): 21 | binning assay signal (antibody pair matrix) (GPNMB [4]; Table 4, paired with column antibody 1.8): 8 | binning assay signal (antibody pair matrix) (GPNMB [4]; Table 4, paired with column antibody 1.9): 12 | binning assay signal (antibody pair matrix) (GPNMB [4]; Table 4, paired with column xV5): 89 | epitope bin (GPNMB [4]; Table 5, Cut-off = 90): VIII | binning assay signal (antibody pair matrix) (GPNMB [4]; Table 5, paired with column BB): 59 | binning assay signal (antibody pair matrix) (GPNMB [4]; Table 5, paired with column antibody 1.1): 127 | binning assay signal (antibody pair matrix) (GPNMB [4]; Table 5, paired with column antibody 1.11): 19 | binning assay signal (antibody pair matrix) (GPNMB [4]; Table 5, paired with column antibody 1.12): 21 | binning assay signal (antibody pair matrix) (GPNMB [4]; Table 5, paired with column antibody 1.13): 5 | binning assay signal (antibody pair matrix) (GPNMB [4]; Table 5, paired with column antibody 1.15): 0 | binning assay signal (antibody pair matrix) (GPNMB [4]; Table 5, paired with column antibody 1.2): 90 | binning assay signal (antibody pair matrix) (GPNMB [4]; Table 5, paired with column antibody 1.3): 51 | binning assay signal (antibody pair matrix) (GPNMB [4]; Table 5, paired with column antibody 1.5): −9 | binning assay signal (antibody pair matrix) (GPNMB [4]; Table 5, paired with column antibody 1.7): 17 | binning assay signal (antibody pair matrix) (GPNMB [4]; Table 5, paired with column antibody 1.8): 12 | binning assay signal (antibody pair matrix) (GPNMB [4]; Table 5, paired with column antibody 1.9): 19 | binning assay signal (antibody pair matrix) (GPNMB [4]; Table 5, paired with column xV5): 125 | epitope bin (GPNMB [4]; six anti-GPNMB antibodies, three bins): Bin 2 | effect on CG56972 expressing cells (CG56972 expressing cells [5]): no effect | effect on CG56972 expressing cells (CG56972 expressing cells [6]): no effect | recognition of shed GPNMB (shed GPNMB [7]): recognize shed GPNMB
